Test results taken from publication PMC6937325, “Tuning PFKFB3 Bisphosphatase Activity Through Allosteric Interference” (Scientific Reports, 2019).

Tests used:
[1] = target: T1, human inducible phospho-fructokinase bisphosphatase isoform 3, PFKFB3 (human), Q16875; experiment: MST; compound in MST buffer mixed 1:1 with 100 nM RED-NHS labeled recombinant PFKFB3, incubated 20 min at room temperature; Nanotemper
[2] = target: T1, human inducible phospho-fructokinase …

T1 sequence (Q16875 whole entry, canonical isoform): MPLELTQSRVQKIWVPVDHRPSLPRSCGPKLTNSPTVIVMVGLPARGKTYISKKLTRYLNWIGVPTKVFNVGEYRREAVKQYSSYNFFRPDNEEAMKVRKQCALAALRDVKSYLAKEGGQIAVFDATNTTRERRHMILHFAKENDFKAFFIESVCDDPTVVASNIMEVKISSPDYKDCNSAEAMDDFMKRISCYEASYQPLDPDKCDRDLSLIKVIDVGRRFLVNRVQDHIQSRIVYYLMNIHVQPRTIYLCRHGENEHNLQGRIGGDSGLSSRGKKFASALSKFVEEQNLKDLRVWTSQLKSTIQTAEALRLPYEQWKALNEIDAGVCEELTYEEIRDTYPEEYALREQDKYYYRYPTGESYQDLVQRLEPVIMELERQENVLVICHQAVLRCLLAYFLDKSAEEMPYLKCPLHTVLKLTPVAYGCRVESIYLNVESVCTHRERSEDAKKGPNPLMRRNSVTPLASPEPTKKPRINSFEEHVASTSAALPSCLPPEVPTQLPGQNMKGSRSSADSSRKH

Kd [1] [µM] | PFKFB3 bisphosphatase velocity (LC-MS/MS of F6P) with compound 4, substrate F2,6BP 20-50 µM; not significantly different from enzyme alone (nmol/min of F6P per nmol of enzyme) [2] | Binder
18 | 0.14 | YSGFLT (modifications not checked) [compound 4]
44 | – | SFLLR (modifications not checked) [compound 5]
